Experimental data reported in patent US20230416371A1 (Chugai, published 2023).

Molecular target: T1, human FcγRIIIa V (allotype V158) extracellular domain (human, UniProt P08637 17-208)
T1 construct: extracellular domain; also called hFcγRIIIaV
Assay: SPR Biacore 8K+; KD of G1d divided by KD of this antibody
Description: The extracellular domains of FcγRs were produced by the method described in WO2014104165. The interaction between the produced antibodies and human FcγRs was analyzed using Biacore 8K+by the method below. For the running buffer, 50 mM Na-Phosphate, 150 mM NaCl, and 0.05% Tween20 (pH 7.4) was used, and measurement was performed at 25° C. The sensor chip used was a Series S SA chip (GE Healthcare) onto which CaptureSelect Human Fab-kappa Kinetics Biotin Conjugate (Thermo Fisher Scientific) was immobilized. An antibody of interest was captured onto this chip, and each FcγR diluted with the running buffer was allowed to interact with it. The chip was regenerated using 10 mM Glycine-HCl (pH 1.5), and repeatedly used to capture antibodies and perform measurement. The dissociation constants KD (mol/L) of each antibody for FcγRs were calculated using Biacore Insight Evaluation Software, with a steady state affinity model for the dissociation constant for FcγRIIb and a 1:1 Langmuir binding model for the dissociation constants for the other FcγRs (Table 2).

T1 sequence (P08637 17-208 F176V): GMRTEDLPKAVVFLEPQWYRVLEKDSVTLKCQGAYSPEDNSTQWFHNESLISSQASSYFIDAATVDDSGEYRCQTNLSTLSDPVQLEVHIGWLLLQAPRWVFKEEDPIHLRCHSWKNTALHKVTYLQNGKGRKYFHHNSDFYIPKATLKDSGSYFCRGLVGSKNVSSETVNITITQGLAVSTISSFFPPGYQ

Binder	Relative value to KD between G1d and hFcγRs
EGL-ART1 (H240-Kn125/L73-k0//H240-H1076/L73-k0) (antibody, human IgG1, kappa, Anti-human Epiregulin IgG1 with heterodimeric (knobs-into-holes) Fc variant; also called Kn125/H1076) heavy 1: QDQLVQSGAEVKKPGASVKVSCKASGFNIKDTYIQWVRQAPGQGLEWMGRIDPLRKQTKYREKFEGRVTITADTSTNTAYMELSSLRSEDTAVYYCVRSGREFDYWGQGTLVTVSSASTKGPSVFPLAPSSKSTSGGTAALGCLVKDYFPEPVTVSWNSGALTSGVHTFPAVLQSSGLYSLSSVVTVPSSSLGTQTYICNVNHKPSNTKVDKKVEPKSCDKTHTCPPCPAPEYQWGPMVFLFPPKPKDTLMISRTPEVTCVVVDVSDEEPEVKFNWYVDGVEVHNAKTKPREEQYNATYRVVSVLTVLHQDWLNGKEYKCKVSNKALPAPIEKTISKAKGQPREPQVCTLPPSRDELTKNQVSLWCLVKGFYPSDIAVEWESNGQPENNYKTTPPVLDSDGSFFLYSKLTVDKSRWQQGNVFSCSVMHEALHNHYTQKSLSLSP heavy 2: QDQLVQSGAEVKKPGASVKVSCKASGFNIKDTYIQWVRQAPGQGLEWMGRIDPLRKQTKYREKFEGRVTITADTSTNTAYMELSSLRSEDTAVYYCVRSGREFDYWGQGTLVTVSSASTKGPSVFPLAPSSKSTSGGTAALGCLVKDYFPEPVTVSWNSGALTSGVHTFPAVLQSSGLYSLSSVVTVPSSSLGTQTYICNVNHKPSNTKVDKKVEPKSCDKTHTCPPCPAPELLGGPSVFLFPPKPKDTLMISRTPEVTCVVVDVSHEEPEVKFNWYVDGVEVHNAKTKPREEQYNSTYRVVSVLTVLHQDWLNGKEYKCKVSNDALPMPIEETISKAKGQPREPQVYTLPPSRCELTKNQVSLSCAVKGFYPSDIAVEWESNGQPENNYKTTPPVLDSDGSFFLVSKLTVDKSRWQQGNVFSCSVMHEALHNHYTQKSLSLSP light: DIQMTQSPSSLSASVGDRVTITCRASQDIHKYIAWYQQKPGQAPRLLIQYTSTLQPGVPSRFSGSGSGTDYTFTISSLQPEDIATYYCLQYEQLRTFGGGTKVEIKRTVAAPSVFIFPPSDEQLKSGTASVVCLLNNFYPREAKVQWKVDNALQSGNSQESVTEQDSKDSTYSLSSTLTLSKADYEKHKVYACEVTHQGLSSPVTKSFNRGEC	323 times
EGL-ART8 (H240-Kn461/L73-k0//H240-HI443/L73-k0) (antibody, human IgG1, kappa, Anti-human Epiregulin IgG1 with heterodimeric (knobs-into-holes) Fc variant) heavy 1: QDQLVQSGAEVKKPGASVKVSCKASGFNIKDTYIQWVRQAPGQGLEWMGRIDPLRKQTKYREKFEGRVTITADTSTNTAYMELSSLRSEDTAVYYCVRSGREFDYWGQGTLVTVSSASTKGPSVFPLAPSSKSTSGGTAALGCLVKDYFPEPVTVSWNSGALTSGVHTFPAVLQSSGLYSLSSVVTVPSSSLGTQTYICNVNHKPSNTKVDKKVEPKSCDKTHTCPPCPAPEFQWGPMVFLFPPKPKDVLMISRTPEVTCVVVDVSDEEPEVKFNWYVDGVEVHNAKTKPREEQYNATYRVVSVLPVLHQDWLNGKEYKCKVSNDALPAPEEKTISKAKGQPREPQVCTLPPSRDELTKNQVSLWCLVKGFYPSDIAVEWESNGQPENNYKTTPPVLDSDGSFFLYSKLTVDKSRWQQGNVFSCSVMHEALHNHYTQKSLSLSP heavy 2: QDQLVQSGAEVKKPGASVKVSCKASGFNIKDTYIQWVRQAPGQGLEWMGRIDPLRKQTKYREKFEGRVTITADTSTNTAYMELSSLRSEDTAVYYCVRSGREFDYWGQGTLVTVSSASTKGPSVFPLAPSSKSTSGGTAALGCLVKDYFPEPVTVSWNSGALTSGVHTFPAVLQSSGLYSLSSVVTVPSSSLGTQTYICNVNHKPSNTKVDKKVEPKSCDKTHTCPPCPAPELLAGPSVFLFPPKPKDVLMISRTPEVTCVVVDVSHEEPEVKFNWYVDGVEVHNAKTKPREEQYNATYRVVSVLPVLHQDWLNGKEYKCKVSNDALPAPEEETISKAKGQPREPQVYTLPPSRCELTKNQVSLSCAVKGFYPSDIAVEWESNGQPENNYKTTPPVLDSDGSFFLVSKLTVDKSRWQQGNVFSCSVMHEALHNHYTQKSLSLSP light: DIQMTQSPSSLSASVGDRVTITCRASQDIHKYIAWYQQKPGQAPRLLIQYTSTLQPGVPSRFSGSGSGTDYTFTISSLQPEDIATYYCLQYEQLRTFGGGTKVEIKRTVAAPSVFIFPPSDEQLKSGTASVVCLLNNFYPREAKVQWKVDNALQSGNSQESVTEQDSKDSTYSLSSTLTLSKADYEKHKVYACEVTHQGLSSPVTKSFNRGEC	685 times
